Reference: patent US12564641B2 (EISAI R&D MANAGEMENT CO., LTD., priority 2019, dated 2026)

Key:
[1] = SEC-HPLC aggregation analysis; format: physicochemical; details: Table 21, humanized 345A12
Protocol: SEC-HPLC analysis was conducted using Agilent 1200 HPLC system.
Aggregation of LCcys80 ADCs was analyzed by size-exclusion, high-performance liquid chromatography (SEC-HPLC) using an Agilent 1200 HPLC. Antibodies and ADCs were prepared at 2 mg/mL in 1×DPBS, 8 μL (16 μg) of each sample was injected and run for 36 min. All data were analyzed using Agilent ChemStation software. Percent aggregation, percent monomer, and percent fragmentation were reported.

[2] = Capillary isoelectric focusing (cIEF) analysis; format: physicochemical
Protocol: Auto-sampler reagents were filled according to the CFR installation and start-up procedures. Hemoglobin was used as system stability standard. Default settings for batch data analysis was used. Focus period #1 was performed for 1 min at 1,500 V for both the system suitability standards and samples. Focus period #2 was performed for 5 min at 3,000 V for the system suitability standards and 11 min at 3,000 V for the TIGC samples and matched buffer controls. Duplicate TIGC samples used Focus period #2 at 4.5 min and all samples were bracketed with a system suitability standard. Samples were automatically integrated using a peak width parameter of 0.1 and threshold of 5 and integrated between pI 7.5-9.4.

[3] = Concentration of purified humanized 345A12 antibodies to 5 mg/mL; format: physicochemical; details: purified antibody in 1×DPBS
Protocol: The super-humanized 345A12 antibodies were purified from 350 mL of scale-up cell culture and formulated in 1×DPBS. The antibodies were concentrated for physical-chemical property evaluation.

[4] = tested on: cynomolgus monkey mesothelin; experiment: BIAcore binding affinity, cynomolgus monkey mesothelin (Example 10)
Protocol: (§1) Binding affinity: Binding measurements were performed in HBS-P+ buffer on a BIAcore T-100 instrument. Antibodies were diluted to 1 μg/mL in HBS-P+. Samples were centrifuged at 14,000×g for 5 min at room temperature and then supernatants were transferred to a new 1.5 mL BIAcore tube and capped. Mesothelin (50 μg) was diluted to 100 nM in 1×HBS-P+ buffer, then serial diluted 5-fold at 100, 20, 4, 0.8, and 0.16 nM in BIAcore tubes and capped. Anti-human antibody capture chip was prepared according to the manufacturer's protocol using a CM5 chip with immobilization wizard. Final capture antibody levels were 8000-9000RU, in HBS-P+. Chip was prepared for assay with five cycles of 300 sec buffer injection followed by 30 sec regeneration, all at 30 μL/min across all four flow cells.
(§2) Antibodies were captured on flow cells 2-4 by sequential injections of individual ligand solutions for 90 sec at 10 μL/min. Analyte injection was done in a single-cycle kinetics manner by sequential injections of analyte solutions from low to high concentration for 240 sec each at 30 μL/min. Detection was 2-1, 3-1, 4-1. Double-referencing was performed by a sequence of identical ligand capture injections, followed by 5 buffer-only injections for 240 sec each, dissociation for 1800 sec, and regeneration as above. All ligands were analyzed for binding to mesothelin in duplicate. […]

rat mesothelin = target: T1, rat mesothelin (Rattus norvegicus, UniProt Q9ERA7); experiment: BIAcore binding affinity, rat mesothelin (Example 10)
T1 sequence (Q9ERA7 36-600): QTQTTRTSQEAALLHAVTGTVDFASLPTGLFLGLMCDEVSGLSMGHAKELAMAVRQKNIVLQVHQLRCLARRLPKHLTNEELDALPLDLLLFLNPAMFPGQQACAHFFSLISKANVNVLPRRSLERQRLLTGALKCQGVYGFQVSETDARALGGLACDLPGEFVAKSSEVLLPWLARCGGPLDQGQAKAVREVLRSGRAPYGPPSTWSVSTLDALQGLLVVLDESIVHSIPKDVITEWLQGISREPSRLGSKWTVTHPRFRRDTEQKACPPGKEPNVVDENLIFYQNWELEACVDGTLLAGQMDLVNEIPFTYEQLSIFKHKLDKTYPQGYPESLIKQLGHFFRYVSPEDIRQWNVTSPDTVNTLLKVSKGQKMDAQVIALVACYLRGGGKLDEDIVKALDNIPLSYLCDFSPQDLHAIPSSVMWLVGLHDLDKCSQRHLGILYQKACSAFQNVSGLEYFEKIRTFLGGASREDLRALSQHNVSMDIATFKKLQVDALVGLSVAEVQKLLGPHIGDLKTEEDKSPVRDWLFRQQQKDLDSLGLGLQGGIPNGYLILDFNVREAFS
Protocol: as §1, §2

Substance: 345A12-HC15-LC4: anti-mesothelin antibody, heavy chain SEQ ID NO: 17, light chain SEQ ID NO: 18; antibody in MORAb-109
- Aggregation % Monomer [1]: 86.56%
- % Acidic Peaks [2]: 34.787%
- % Basic Peaks [2]: 14.424%
- % Neutral Peak [2]: 50.790%
- pI [2]: 8.25
- Concentration to 5 mg/mL [3]: Yes
- binding to cynomolgus monkey mesothelin [4]: retained binding affinity
- binding to rat mesothelin (rat mesothelin): Nether antibody bound
